{
  "source": "paper PMC5594479",
  "about": "“Identification and immobilization of a novel cold-adapted esterase, and its potential for bioremediation of pyrethroid-contaminated vegetables” (Microbial Cell Factories, 2017)",
  "substrate": "CCCC(=O)Oc1ccc([N+](=O)[O-])cc1",
  "test": "purified protein",
  "format": "biochemical, uncultured microorganism",
  "details": "free (soluble) enzyme, potassium phosphate pH 6.5, 18 °C, substrate range printed as 1.0 to 10.0 mM, does not fit the printed Km unit",
  "data": [
    {"protein": "Est684 (uncultured microorganism) (protein, E. coli BL21 (DE3); Ni-NTA and Superdex 200; putative triad S103/D167/H203) MPSGENQFYVDKPSRGENYGAYVADELVEFTRKMFPLSYKKEDTFIAGLSMGGYGALINGLKYHETFSHIGAFSPGLMIDDIASRSELLSVTGWSMDFYGNSFGGIDTIKNSDKDYYYLIDQLLENKKEIPKIYLPIGTDDFLLESVRGFKSFVDKREVPLTYIEDDGGHEWDFWDKYVKNFLEWLPLEEKGNYLNSGNVAEHGFRDADAQKAQAALVAWFEETLKK", "values": [
      {"measurement": "Km", "value": 6.01, "unit": "mM"},
      {"measurement": "kcat", "value": "417.15 ± 1.51", "unit": "s⁻¹"}
    ]}
  ]
}
